The source of these data is patent US20110014656A1 (ZymoGenetics, published 2011).

Where “and” joins values, the source holds several entries; their conditions need not be identical. Identical values can stand only once.

The target in experiment [1] is T1, human IL-17RC, x1 splice variant, on transfected cells (human, UniProt Q8NAC3 21-791).
T1 construct: Expressed on BHK, 293F or NIH3T3 cells; also called hIL-17RC; hIL-17RC (x1)
T1 sequence: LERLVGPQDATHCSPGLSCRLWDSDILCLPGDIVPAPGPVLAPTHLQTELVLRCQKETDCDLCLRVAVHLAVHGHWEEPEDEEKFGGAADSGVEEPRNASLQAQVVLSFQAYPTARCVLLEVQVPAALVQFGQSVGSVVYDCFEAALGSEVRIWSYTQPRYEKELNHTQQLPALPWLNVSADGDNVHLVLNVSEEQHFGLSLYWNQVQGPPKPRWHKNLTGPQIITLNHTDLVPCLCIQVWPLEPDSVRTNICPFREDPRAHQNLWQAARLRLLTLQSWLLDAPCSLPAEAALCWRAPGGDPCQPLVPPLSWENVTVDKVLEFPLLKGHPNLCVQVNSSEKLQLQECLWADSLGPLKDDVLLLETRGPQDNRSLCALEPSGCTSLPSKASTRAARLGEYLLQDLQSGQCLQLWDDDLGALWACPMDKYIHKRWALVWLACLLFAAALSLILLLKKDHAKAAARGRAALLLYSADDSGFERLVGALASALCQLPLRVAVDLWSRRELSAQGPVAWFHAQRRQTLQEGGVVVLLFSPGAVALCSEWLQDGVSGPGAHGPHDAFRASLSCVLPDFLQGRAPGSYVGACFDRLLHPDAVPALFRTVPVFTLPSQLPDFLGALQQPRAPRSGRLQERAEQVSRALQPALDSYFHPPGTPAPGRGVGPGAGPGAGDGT
Briefly: competition, 100x molar cold ligand vs 125I-IL-17F on BHK hIL-17RC cells. As to the method:
(§1) Cold competitors were added in 100 fold molar excess. […] Wells were incubated on ice for 1-hour followed by two washes with PBS (Invitrogen 20012-027) and one wash with a high salt solution (1.5M NaCL, 50 mM HEPES pH 7.4). Wells were extracted with 500 ul of 0.8M NaOH for 30 min. at room temperature and counts per minute were measured in a gamma counter (Packard Cobra II A5005).

Experiment [2] has as its target T1, human IL-17RC, x1 splice variant, on …. Briefly: competition, 100x molar cold ligand vs 125I-IL-17A on BHK hIL-17RC cells. Here is the method: as §1
For experiment [3], the target named is T2, human IL-17 receptor (IL-17RA) on transfected cells (human, UniProt Q96F46 33-320).
T2 sequence: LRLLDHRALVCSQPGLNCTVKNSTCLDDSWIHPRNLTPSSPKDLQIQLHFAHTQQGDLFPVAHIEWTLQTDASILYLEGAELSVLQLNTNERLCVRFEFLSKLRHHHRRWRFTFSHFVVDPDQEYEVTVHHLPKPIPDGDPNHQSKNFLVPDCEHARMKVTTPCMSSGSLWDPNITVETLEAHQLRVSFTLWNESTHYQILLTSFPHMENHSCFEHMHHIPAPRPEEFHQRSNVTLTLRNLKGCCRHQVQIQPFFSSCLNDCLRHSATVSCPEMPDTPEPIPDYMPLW
The experiment is described as follows: cell-based or functional assay.

In experiment [4] the target is T1, human IL-17RC, x1 splice variant, on …. Briefly: cell-based or functional assay.
The target is the same in experiment [5]. Briefly: saturation binding, iodinated cytokine on transfected BHK cells.
For experiment [6] the target is unchanged. The experiment is described as follows: saturation binding, 125I-cytokine on BHK cells; high affinity site of a two-site fit. As to the method:
as §1
Transfected BHK cells were plated into 24-well dishes as in one. […] Separately, 100 fold molar excess of cold ligand was added at each dilution point. Cells were washed, extracted and counted as in one. Specific counts per minute were plotted against concentration of radiolabeled ligand added by subtracting the 100 fold excess counts from the uncompeted counts at each dilution point. These normalized data were plotted to generate saturation binding curves for each combination of radiolabeled ligand and transfected BHK cells.

B1: human IL-17F (ligand)
chain: RKIPKVGHTFFQKPESCPPVPGGSMKLDIGIINENQRVSMSRNIESRSTSPWNYTVTWDPNRYPSEVVQAQCRNLGCINAQGKEDISMNSVPIQQETLVVRRKHQGCSVSFQLEKVLVTVGCTCVTPVIHHVQ
notes: also called hIL-17F; hIL17F
As a reminder, the Kd is a measure of binding affinity in units of concentration. For B1, the “fold reduction of 125I-IL-17F binding” value in experiment [1] was roughly 5 fold. Moreover, the “fold reduction of 125I-IL-17A binding” value in experiment [2] was roughly 7 fold. Besides, the “EC50, luciferase in nih3t3/kz142.8/IL-17R cells” value in experiment [3] turned out to be 12.4 ng/mL. Moreover, in experiment [4], the “EC50, luciferase in nih3t3/kz142.8/hcytor14X1 cells” value came out at 0.61 ng/mL and the “fold more potent EC50 in the recombinant line than in the parental line” value is 17 fold. In experiment [5], this molecule came in with a Kd of 1 nM. Also, the Kd in experiment [6] is 0.05 nM and 0.06 nM and 0.08 nM.
